These results are taken from the supplement of paper PMC5998384.

For data set [1], the system named is HeLa Kyoto. As to the kind of experiment: solubility change mitosis vs G1/S (difference of NP-40 vs SDS log2 ratios) (log2 ratio difference); higher = more soluble in mitosis.
Data set [2] concerns HeLa Kyoto. Briefly: solubility in G1/S (NP-40 vs SDS abundance) (log2 ratio); higher = more soluble. The note with it: cell cycle stage: G1/S.
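Wherever solubility change mitosis vs G1/S (difference of NP-40 vs SDS log2 ratios) is given: synchronized HeLa Kyoto cells (double thymidine block for G1/S, nocodazole release for mitosis), protein amounts in NP-40 versus SDS lysates quantified by mass spectrometry, three biological replicates.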
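Wherever solubility in G1/S (NP-40 vs SDS abundance) is given: HeLa Kyoto cells arrested at G1/S by double thymidine block, proteins quantified by TMT10plex mass spectrometry in mild NP-40 versus SDS extracts, three biological replicates.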

With “MENELPVPHTSSSACATSSTSGASSSSGCNNSSSGGSGRPTGPQISVYSGIPDRQTVQVIQQALHRQPSTAAQYLQQMYAAQQQHLMLQTAALQQQHLSSAQLQSLAAVQQASLVSNRQGSTSGSNVSAQAPAQSSSINLAASPAAAQLLNRAQSVNSAAASGIAQQAVLLGNTSSPALTASQAQMYLRAQMLIFTPTATVATVQPELGTGSPARPPTPAQVQNLTLRTQQTPAAAASGPTPTQPVLPSLALKPTPGGSQPLPTPAQSRNTAQASPAGAKPGIADSVMEPHKKGDGNSSVPGSMEGRAGLSRTVPAVAAHPLIAPAYAQLQPHQLLPQPSSKHLQPQFVIQQQPQPQQQQPPPQQSRPVLQAEPHPQLASVSPSVALQPSSEAHAMPLGPVTPALPLQCPTANLHKPGGSQQCHPPTPDTGPQNGHPEGVPHTPQRRFQHTSAVILQLQPASPPQQCVPDDWKEVAPGEKSVPETRSGPSPHQQAIVTAMPGGLPVPTSPNIQPSPAHETGQGIVHALTDLSSPGMTSGNGNSASSIAGTAPQNGENKPPQAIVKPQILTHVIEGFVIQEGAEPFPVGRSSLLVGNLKKKYAQGFLPEKLPQQDHTTTTDSEMEEPYLQESKEEGAPLKLKCELCGRVDFAYKFKRSKRFCSMACAKRYNVGCTKRVGLFHSDRSKLQKAGAATHNRRRASKASLPPLTKDTKKQPTGTVPLSVTAALQLTHSQEDSSRCSDNSSYEEPLSPISASSSTSRRRQGQRDLELPDMHMRDLVGMGHHFLPSEPTKWNVEDVYEFIRSLPGCQEIAEEFRAQEIDGQALLLLKEDHLMSAMNIKLGPALKIYARISMLKDS [PHC2]”, in the data set with HeLa Kyoto [1], the “solubility change mitosis (log2)” value was 0.555. In the data set on HeLa Kyoto [2], the “solubility in G1/S (log2)” value is -0.368.
The like results for “MEPLKVEKFATAKRGNGLRAVTPLRPGELLFRSDPLAYTVCKGSRGVVCDRCLLGKEKLMRCSQCRVAKYCSAKCQKKAWPDHKRECKCLKSCKPRYPPDSVRLLGRVVFKLMDGAPSESEKLYSFYDLESNINKLTEDKKEGLRQLVMTFQHFMREEIQDASQLPPAFDLFEAFAKVICNSFTICNAEMQEVGVGLYPSISLLNHSCDPNCSIVFNGPHLLLRAVRDIEVGEELTICYLDMLMTSEERRKQLRDQYCFECDCFRCQTQDKDADMLTGDEQVWKEVQESLKKIEELKAHWKWEQVLAMCQAIISSNSERLPDINIYQLKVLDCAMDACINLGLLEEALFYGTRTMEPYRIFFPGSHPVRGVQVMKVGKLQLHQGMFPQAMKNLRLAFDIMRVTHGREHSLIEDLILLLEECDANIRAS [SMYD3]” were, in that order, -0.167 and -0.0441.
For “MEPRAAAAGEPEPPAASSSFQARLWKNLQLGVGRSKGGGGGRAGGPERRTADTPSPSPPPPVGTGNAPARGSGAGSRWSGFKKRKQVLDRVFSSSQPNLCCSSPEPLEPGGAGRAEQGSTLRRRIREHLLPAVKGPAAASGAAGGTPPGGRSPDSAPSSSSASSSLSSSPQPPPRGDRARDEGARRQGPGAHLCHQKSSSLPGTACLEQLLEPPPPPAEPARSPAESRAPETGEEHGSSQKIINTAGTSNAEVPLADPGMYQLDITLRRGQSLAARDRGGTSDPYVKFKIGGKEVFRSKIIHKNLNPVWEEKACILVDHLREPLYIKVFDYDFGLQDDFMGSAFLDLTQLELNRPTDVTLTLKDPHYPDHDLGIILLSVILTPKEGESRDVTMLMRKSWKRSSKELSENEVVGSYFSVKSLFWRTCGRPALPVLGFCRAELQNPYCKNVQFQTQSLRLSDLHRKSHLWRGIVSITLIEGRDLKAMDSNGLSDPYVKFRLGHQKYKSKIMPKTLNPQWREQFDFHLYEERGGVIDITAWDKDAGKRDDFIGRCQVDLSALSREQTHKLELQLEEGEGHLVLLVTLTASATVSISDLSVNSLEDQKEREEILKRYSPLRIFHNLKDVGFLQVKVIRAEGLMAADVTGKSDPFCVVELNNDRLLTHTVYKNLNPEWNKVFTFNIKDIHSVLEVTVYDEDRDRSADFLGKVAIPLLSIQNGEQKAYVLKNKQLTGPTKGVIYLEIDVIFNAVKASLRTLIPKEQKYIEEENRLSKQLLLRNFIRMKRCVMVLVNAAYYVNSCFDWDSPPRSLAAFVLFLFVVWNFELYMIPLVLLLLLTWNYFLIISGKDNRQRDTVVEDMLEDEEEEDDKDDKDSEKKGFINKIYAIQEVCVSVQNILDEVASFGERIKNTFNWTVPFLSWLAIVALCVFTAILYCIPLRYIVLVWGINKFTKKLRSPYAIDNNELLDFLSRVPSDVQVVQYQELKPDPSHSPYKRKKNNLG [MCTP1]”, in that order: -0.196 and 0.0529.
